The experiment deals with Protein G (Protein G UltraLink resin, Pierce) (group G streptococci) (UniProt P19909). The experiment is described as follows: depletion of 100 µg IgG by Protein G resin beads (10 µL suspension); supernatant read by SDS-PAGE band pixels.

Turning to IgG (antibody), the remaining antibody amount (unbound IgG left in supernatant) is 3%.
